Measured values: patent US20150098945A1 (Daiichi Sankyo, published 2015)
Like-named read-outs stand apart in the source and are kept apart here. Blank lines part the entries; values can stand above or below the binder they belong to.

What was measured:
[1] = target: T1, human ROBO2 (pCI-hROBO2-transfected HEK293 cells) (human); assay: flow cytometry on transfected HEK293 cells
T1 chain: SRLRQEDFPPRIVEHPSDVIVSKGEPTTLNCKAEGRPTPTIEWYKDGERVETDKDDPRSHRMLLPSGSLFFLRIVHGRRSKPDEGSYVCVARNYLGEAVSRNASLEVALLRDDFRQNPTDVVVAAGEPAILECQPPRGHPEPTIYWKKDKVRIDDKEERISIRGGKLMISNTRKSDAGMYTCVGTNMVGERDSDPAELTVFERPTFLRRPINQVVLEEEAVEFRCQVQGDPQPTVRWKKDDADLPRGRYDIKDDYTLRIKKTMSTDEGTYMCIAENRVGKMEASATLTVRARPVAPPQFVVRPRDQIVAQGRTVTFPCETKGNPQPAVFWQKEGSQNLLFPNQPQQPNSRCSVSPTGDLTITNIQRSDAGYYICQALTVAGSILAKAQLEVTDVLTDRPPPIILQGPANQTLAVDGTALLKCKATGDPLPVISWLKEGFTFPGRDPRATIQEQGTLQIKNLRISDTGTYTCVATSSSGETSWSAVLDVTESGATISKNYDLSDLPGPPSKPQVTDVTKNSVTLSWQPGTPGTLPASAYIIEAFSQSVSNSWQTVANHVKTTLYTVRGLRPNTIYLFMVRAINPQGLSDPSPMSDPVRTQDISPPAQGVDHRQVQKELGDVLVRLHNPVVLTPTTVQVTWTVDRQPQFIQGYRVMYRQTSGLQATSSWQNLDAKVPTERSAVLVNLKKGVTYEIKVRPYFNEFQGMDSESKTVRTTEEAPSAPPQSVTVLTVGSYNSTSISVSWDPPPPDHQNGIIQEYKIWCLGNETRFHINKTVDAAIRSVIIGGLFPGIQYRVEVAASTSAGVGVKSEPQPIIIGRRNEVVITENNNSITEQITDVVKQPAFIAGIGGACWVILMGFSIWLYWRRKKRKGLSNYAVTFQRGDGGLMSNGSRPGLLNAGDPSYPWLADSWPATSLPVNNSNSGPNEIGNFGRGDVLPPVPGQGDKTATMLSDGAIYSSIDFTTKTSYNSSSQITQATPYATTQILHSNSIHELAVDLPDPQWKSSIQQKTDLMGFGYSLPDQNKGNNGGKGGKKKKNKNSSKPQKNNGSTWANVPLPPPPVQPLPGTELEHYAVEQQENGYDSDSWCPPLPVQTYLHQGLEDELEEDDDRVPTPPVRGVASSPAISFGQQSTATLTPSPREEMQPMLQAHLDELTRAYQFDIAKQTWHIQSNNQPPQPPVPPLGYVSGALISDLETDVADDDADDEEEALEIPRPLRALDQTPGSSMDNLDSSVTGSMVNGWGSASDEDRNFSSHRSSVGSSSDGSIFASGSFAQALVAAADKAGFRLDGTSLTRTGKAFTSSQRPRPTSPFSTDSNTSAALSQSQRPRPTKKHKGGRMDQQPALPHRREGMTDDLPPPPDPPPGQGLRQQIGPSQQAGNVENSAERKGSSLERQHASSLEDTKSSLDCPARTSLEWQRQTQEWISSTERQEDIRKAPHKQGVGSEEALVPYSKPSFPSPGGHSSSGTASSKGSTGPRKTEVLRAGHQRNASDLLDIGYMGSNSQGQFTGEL

[2] = target: T2, mouse ROBO4 (pCI-mROBO4-transfected HEK293 cells) (mouse, UniProt Q8C310 28-1012); assay: flow cytometry (FC500), HEK293 cells transfected with pCI-mROBO4, FITC goat anti-human IgG Fc; control histogram IgG (human IgG)
T2 sequence: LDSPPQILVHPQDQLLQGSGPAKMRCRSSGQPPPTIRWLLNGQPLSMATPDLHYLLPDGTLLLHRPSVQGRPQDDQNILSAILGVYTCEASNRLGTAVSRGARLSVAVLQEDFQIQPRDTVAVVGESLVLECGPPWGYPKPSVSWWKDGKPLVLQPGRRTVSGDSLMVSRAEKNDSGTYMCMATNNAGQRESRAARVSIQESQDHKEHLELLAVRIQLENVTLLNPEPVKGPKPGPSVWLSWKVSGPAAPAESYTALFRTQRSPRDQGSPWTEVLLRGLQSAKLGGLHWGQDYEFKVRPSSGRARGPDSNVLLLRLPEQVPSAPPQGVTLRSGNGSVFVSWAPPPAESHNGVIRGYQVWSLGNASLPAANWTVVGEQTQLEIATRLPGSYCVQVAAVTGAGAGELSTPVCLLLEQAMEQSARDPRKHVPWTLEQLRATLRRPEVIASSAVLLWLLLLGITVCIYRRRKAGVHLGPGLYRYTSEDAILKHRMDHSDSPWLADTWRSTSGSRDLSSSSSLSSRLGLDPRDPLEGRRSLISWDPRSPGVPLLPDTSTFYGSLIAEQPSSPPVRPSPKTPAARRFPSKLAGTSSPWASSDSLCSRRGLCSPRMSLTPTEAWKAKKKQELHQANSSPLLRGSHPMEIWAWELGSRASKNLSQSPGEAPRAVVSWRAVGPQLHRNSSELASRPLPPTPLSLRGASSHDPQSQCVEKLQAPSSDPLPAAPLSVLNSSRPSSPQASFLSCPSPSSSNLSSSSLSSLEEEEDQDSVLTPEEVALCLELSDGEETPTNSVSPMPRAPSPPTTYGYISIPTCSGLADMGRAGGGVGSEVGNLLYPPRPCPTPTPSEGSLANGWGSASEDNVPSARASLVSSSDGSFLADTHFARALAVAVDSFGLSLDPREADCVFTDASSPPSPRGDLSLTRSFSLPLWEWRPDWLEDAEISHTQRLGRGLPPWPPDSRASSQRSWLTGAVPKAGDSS

[3] = target: T2, mouse ROBO4 (pCI-mROBO4-transfected …); assay: as above; remark: listed apart in the source

B1: humanized MAb1 antibody H-1140 (antibody, human IgG2, kappa, V domains shown)
VH: EVQLVESGGGLVQPGGSLRLSCAASGFTFSTYAMSWVRQAPGKGLEWVATISQGGTYTYYPDSVKGRFTISRDNAKNTLYLQMNSLRAEDTAVYYCARLIYYDYLDYWGQGTLVTVSS
VL: DIVMTQSPLSLPVTLGEPASISCRSSQSLENSNGNTYLNWYLQKPGQSPQLLIYRVSNRFSGVPDRFSGSGSGTDFTLKISRVEAEDVGVYYCLQVTHVPWTFGPGTKVDIKR
notes: Human IgG2 / kappa constant regions; also called hMAb1-H2-type heavy chain + hMAb1-L1-type light chain
binding result [1]: no binding (tested: 10 µg/mL (method of 4)-4-2))

binding result [2]: no binding (tested: 10 µg/mL)
B2: humanized MAb1 antibody H-2143 (antibody, human IgG2, kappa, V domains shown)
VH: EVQLVESGGGLVQPGGSLRLSCAASGFTFSTYAMSWVRQAPGKRLEWVATISQGGTYTYYPDSVKGRFTISRDNAKNTLYLQMNSLRAEDTAVYYCARLIYYDYLDYWGQGTLVTVSS
VL: DIVMTQSPLSLPVTLGEPASISCRSSQSLENENKNLYLNWYLQKPGQSPQLLIYRVSNRFSGVPDRFSGSGSGTDFTLKISRVEAEDVGVYYCLQVTHVPWTFGPGTKVDIKR
notes: Human IgG2 / kappa constant regions; also called hMAb1-H4-type heavy chain + hMAb1-L2-type light chain

binding result [3]: no binding (tested: 10 µg/mL)
B3: humanized MAb1 antibody H-2140 (antibody, human IgG2, kappa, V domains shown)
VH: EVQLVESGGGLVQPGGSLRLSCAASGFTFSTYAMSWVRQAPGKRLEWVATISQGGTYTYYPDSVKGRFTISRDNAKNTLYLQMNSLRAEDTAVYYCARLIYYDYLDYWGQGTLVTVSS
VL: DIVMTQSPLSLPVTLGEPASISCRSSQSLENSNGNTYLNWYLQKPGQSPQLLIYRVSNRFSGVPDRFSGSGSGTDFTLKISRVEAEDVGVYYCLQVTHVPWTFGPGTKVDIKR
notes: Human IgG2 / kappa constant regions; also called hMAb1-H4-type heavy chain + hMAb1-L1-type light chain
